Test results reported in patent publication US20170306032A1.

Experiments:
[1] = biological target: mouse EphA2 recombinant protein (Fc chimera, R&D Systems, cat#639-A2) (mouse) (UniProt Q03145); test: end-point titration ELISA on mEphA2
[2] = biological target: human EphA2 recombinant protein (purified human EphA2 extracellular domain) (human) (UniProt P29317); test: SPR, Biacore 3000, immobilized huEphA2 extracellular domain
[3] = biological target: human EphA2 receptor expressed on cells (HEK293-EphA2, CHO-EphA2, PC-3) (human) (UniProt P29317); test: FACS on CHO cells transfected with human EphA2
Chain of human EphA2 receptor expressed on cells (HEK293-EphA2, CHO-EphA2, PC-3) (human) (P29317 24-976): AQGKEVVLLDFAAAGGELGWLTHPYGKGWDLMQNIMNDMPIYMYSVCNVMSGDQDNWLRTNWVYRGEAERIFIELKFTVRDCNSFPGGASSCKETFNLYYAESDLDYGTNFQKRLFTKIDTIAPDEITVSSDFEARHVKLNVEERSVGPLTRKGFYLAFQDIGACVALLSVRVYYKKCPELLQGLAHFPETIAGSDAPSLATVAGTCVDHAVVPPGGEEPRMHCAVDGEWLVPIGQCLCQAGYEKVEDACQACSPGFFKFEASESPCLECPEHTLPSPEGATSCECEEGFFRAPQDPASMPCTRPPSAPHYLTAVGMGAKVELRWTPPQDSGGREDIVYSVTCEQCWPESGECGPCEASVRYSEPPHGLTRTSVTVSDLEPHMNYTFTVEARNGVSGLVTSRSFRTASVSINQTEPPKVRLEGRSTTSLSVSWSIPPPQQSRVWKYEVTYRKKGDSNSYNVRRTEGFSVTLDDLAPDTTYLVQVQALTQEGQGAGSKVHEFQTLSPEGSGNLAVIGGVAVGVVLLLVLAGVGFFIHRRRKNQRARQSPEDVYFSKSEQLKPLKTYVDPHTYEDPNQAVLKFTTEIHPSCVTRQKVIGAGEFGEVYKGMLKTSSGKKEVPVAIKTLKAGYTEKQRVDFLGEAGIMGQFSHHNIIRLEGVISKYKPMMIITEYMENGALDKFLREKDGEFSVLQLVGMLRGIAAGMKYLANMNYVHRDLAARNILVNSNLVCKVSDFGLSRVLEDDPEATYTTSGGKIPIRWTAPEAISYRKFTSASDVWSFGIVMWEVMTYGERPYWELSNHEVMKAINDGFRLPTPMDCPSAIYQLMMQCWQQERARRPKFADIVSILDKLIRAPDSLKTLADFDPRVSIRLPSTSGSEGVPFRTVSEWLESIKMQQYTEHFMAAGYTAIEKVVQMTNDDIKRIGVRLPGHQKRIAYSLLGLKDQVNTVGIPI

[4] = biological target: human EphA2 recombinant protein (purified human EphA2 extracellular domain) (human) (UniProt P29317); test: end-point titration ELISA on huEphA2
[5] = biological target: human EphA2 recombinant protein (purified human EphA2 extracellular domain) (human) (UniProt P29317); test: SPR, Biacore 3000, immobilized huEphA2 extracellular domain, KDequilibrium
[6] = biological target: human EphA2 recombinant protein (purified human EphA2 extracellular domain) (human) (UniProt P29317); test: BLI, Octet Red, biotinylated huEphA2 on streptavidin sensors, steady state fit (column head prints EC50, title KD)
[7] = biological target: mouse EphA2 recombinant protein (Fc chimera, R&D Systems, cat#639-A2) (mouse) (UniProt Q03145); test: BLI, Octet Red, biotinylated mEphA2 on streptavidin sensors, steady state fit (column head prints EC50, title KD)
[8] = biological target: human EphA2 recombinant protein (purified human EphA2 extracellular domain) (human) (UniProt P29317); test: SPR, Biacore 3000, immobilized huEphA2 extracellular domain, KDkinetic

Chain of human EphA2 recombinant protein (purified human EphA2 extracellular domain) (human) (P29317 24-537): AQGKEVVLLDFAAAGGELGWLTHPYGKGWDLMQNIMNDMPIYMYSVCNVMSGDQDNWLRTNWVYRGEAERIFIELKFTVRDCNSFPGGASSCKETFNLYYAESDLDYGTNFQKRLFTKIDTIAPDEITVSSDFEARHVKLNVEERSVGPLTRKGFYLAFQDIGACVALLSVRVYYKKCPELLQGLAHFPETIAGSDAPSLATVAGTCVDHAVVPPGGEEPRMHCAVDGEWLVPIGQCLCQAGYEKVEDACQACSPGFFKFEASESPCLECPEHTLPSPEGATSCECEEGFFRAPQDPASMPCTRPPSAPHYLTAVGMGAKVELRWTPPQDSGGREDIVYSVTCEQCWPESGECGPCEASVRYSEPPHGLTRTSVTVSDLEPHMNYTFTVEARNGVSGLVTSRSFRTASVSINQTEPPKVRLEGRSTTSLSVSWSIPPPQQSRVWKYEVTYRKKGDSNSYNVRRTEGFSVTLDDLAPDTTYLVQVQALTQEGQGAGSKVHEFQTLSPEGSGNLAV
Chain of mouse EphA2 recombinant protein (Fc chimera, R&D Systems, cat#639-A2) (mouse) (Q03145 26-535, change not shown): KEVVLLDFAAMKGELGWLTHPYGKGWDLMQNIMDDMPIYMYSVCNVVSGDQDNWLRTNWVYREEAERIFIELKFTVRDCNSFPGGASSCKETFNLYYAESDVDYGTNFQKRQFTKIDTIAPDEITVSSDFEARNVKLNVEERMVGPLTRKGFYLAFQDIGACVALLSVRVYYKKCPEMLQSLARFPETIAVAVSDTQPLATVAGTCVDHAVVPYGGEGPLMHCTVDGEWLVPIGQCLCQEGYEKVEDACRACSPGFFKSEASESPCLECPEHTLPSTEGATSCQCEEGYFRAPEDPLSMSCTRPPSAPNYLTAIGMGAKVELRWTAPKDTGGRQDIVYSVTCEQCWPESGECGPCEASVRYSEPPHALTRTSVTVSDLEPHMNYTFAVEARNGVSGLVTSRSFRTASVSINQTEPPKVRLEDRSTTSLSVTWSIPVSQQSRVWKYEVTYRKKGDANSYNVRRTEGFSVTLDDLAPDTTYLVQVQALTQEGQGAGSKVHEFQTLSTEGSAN

EC50 [1]: 3.5 nM
koff [2]: 0.0496 s⁻¹
kon [2]: 716000 M⁻¹ s⁻¹
EC50 [3]: 151 nM
EC50 [4]: 6.54 nM
Kd [5]: 56 nM
Kd [6]: 39 nM
Kd [7]: 30 nM
Kd [8]: 69 nM
B1: B6 modified CH2 domain (affinity matured, loop 1 PYLHDD, loop 2 of E10) (designed binder)
chain: GPSVFLFPPKPKDTLMISRTPEVTCVVVDPYLHDDEVKFNWYVDGAEVHHAQTKPRQYDPLYGYRVVSVLTVLHQDWLNGKEYKCKVSNKALPAPIEKTISKAK
